Source: patent publication US20240343803A1 (SHANDONG SIMCERE BIOPHARMACEUTICAL, published 2024)

T1: human PVRIG-his (AcroBiosystems, Cat NO. PVG-H52H4) (human, UniProt Q6DKI7 41-171, limits assumed)
T1 construct: also called human PVRIG protein
T1 sequence (looked up): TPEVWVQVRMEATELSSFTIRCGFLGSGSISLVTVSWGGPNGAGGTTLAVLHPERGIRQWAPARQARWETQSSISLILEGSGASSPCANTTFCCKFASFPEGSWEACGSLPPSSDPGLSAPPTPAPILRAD

T2: cynomolgus monkey PVRIG (Novoprotein, Cat NO. C09B) (cynomolgus monkey, UniProt A0A2K5WVV8 41-171)
T2 construct: also called cynomolgus monkey PVRIG protein
T2 sequence: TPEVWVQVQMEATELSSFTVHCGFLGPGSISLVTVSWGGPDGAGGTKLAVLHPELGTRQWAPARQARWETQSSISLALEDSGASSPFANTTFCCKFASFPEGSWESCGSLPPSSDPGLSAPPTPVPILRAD

T3: Fusion protein of extracellular domain of human TIGIT and mouse IgG2a Fc fragment (human TIGIT ECD-mFc) (human)
T3 construct: The entry includes the signal peptide (limits not recoverable) and the mouse IgG2a Fc
T3 chain: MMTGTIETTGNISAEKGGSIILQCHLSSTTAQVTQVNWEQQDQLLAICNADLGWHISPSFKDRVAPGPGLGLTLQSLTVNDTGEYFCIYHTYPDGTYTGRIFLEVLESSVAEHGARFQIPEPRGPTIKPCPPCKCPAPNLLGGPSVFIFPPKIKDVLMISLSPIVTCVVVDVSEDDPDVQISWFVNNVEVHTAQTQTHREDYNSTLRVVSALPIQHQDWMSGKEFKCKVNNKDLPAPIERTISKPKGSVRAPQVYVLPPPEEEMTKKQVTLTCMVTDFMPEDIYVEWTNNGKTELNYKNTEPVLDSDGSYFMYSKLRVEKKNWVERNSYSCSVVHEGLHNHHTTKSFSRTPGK

T4: Full-length human TIGIT on CHO-K1 cells (CHO-K1 human TIGIT) (human, UniProt Q495A1 22-244)
T4 construct: NCBI XP_024309156.1; the entry includes the signal peptide (limits not recoverable); The strain (high, medium, low) is named under assay; also called high expression strain 1D2; medium expression strain 2D10
T4 sequence: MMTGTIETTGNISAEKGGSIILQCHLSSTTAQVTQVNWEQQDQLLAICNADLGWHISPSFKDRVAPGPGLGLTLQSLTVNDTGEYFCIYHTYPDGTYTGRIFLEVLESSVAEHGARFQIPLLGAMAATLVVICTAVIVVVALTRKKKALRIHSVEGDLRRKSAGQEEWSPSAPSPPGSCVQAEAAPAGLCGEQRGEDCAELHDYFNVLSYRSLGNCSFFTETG


Legend:
[1] = biological target: T1, human PVRIG-his (AcroBiosystems, Cat …); test: SPR (BIAcore), antibody captured on Protein A chip, human PVRIG-His analyte
Experimental: Biacore was used to detect the specific binding between anti-PVRIG antibody and human PVRIG protein. Protein A chip was used in the BIAcore assay. The time required for the chip to capture the diluted antibody and saturate the binding antigen to reach Rₘₐₓ (Maximum binding capacity, 50 RU) was measured by manual run. […] The affinity of antibody for antigen was measured by multi-cycle kinetics. In each cycle, the antibodies were injected prior to the injection of gradient concentraions of PVRIG proteins allowing the occurrence of antibody-antigen association and dissociation After each cycle, the Protein A chip was regenerated by Glycine, pH 1.5 (to remove the proteins on the chip). The affinity of antibody for antigen was calculated by BIAcore T200 analysis software.
The methods refer to Example 10.

[2] = biological target: T1, human PVRIG-his (AcroBiosystems, Cat …); test: competition ELISA, PVRIG-His coated, competitor human PVRL2-mFc
Experimental: The ELISA plate was pre-coated with 100 μL/well of 0.5 μg/mL human PVRIG-his protein (AcroBiosystems, Cat NO. PVG-H52H4). The tested anti-PVRIG antibodies were diluted from the highest concentration of 16 nM (two-fold concentration). The diluted antibodies were mixed with 18 ng/ml human PVRL2-mFc (AcroBiosystems, Cat NO. CD2-H5257) in equal volume, added into the plate (100 μL/well), and incubated with shaking at room temperature for 2.0 hours. […] A HRP substrate, TMB (Thermo, Cat NO. 34029) was added into wells after washing the plate again for color development. After adding a termination solution to terminate the reaction, the absorbance value was read by a microplate reader (MD i3×). An inhibiting curve was drawn with concentration of antibodies as the abscissa and the corresponding OD value as the ordinate. The IC50 value was calculated by using a Four Parameter Logistic Fit (GraphPadPrism9). The smaller the IC50 value, the stronger the ability of the antibodies inhibits the binding between PVRIG and PVRL2. The positive and negative controls are the same as in Example 8.
The methods refer to Example 11. The inhibiting activity of the humanized antibodies was normalized to the corresponding parental antibodies. If the percentage value is higher than 100%, the inhibiting effect of humanized antibodies is better than that of parental antibodies.

[3] = biological target: T2, cynomolgus monkey PVRIG (Novoprotein, …); test: ELISA, antigen coated
Experimental: (§1) The ELISA plate was pre-coated with 100 μL/well of 0.5 μg/mL human PVRIG-his (AcroBiosystems, Cat NO. PVG-H52H4) or cynomolgus monkey PVRIG (Novoprotein, Cat NO. C09B). The tested anti-PVRIG humanized antibodies were serially diluted (initial concentration 3 nM, 3-fold serial dilution), added into the plate (100 μL/well) and incubated with shaking at room temperature for 1.5 hours. […] A HRP substrate, TMB (Thermo, Cat NO. 34029) was added into wells after washing the plate again for color development. After adding a termination solution to terminate the reaction, the absorbance value was read by a microplate reader (MD i3×). An antibody binding curve was drawn with concentration of antibodies as the abscissa and the corresponding OD value as the ordinate. The EC50 value was calculated by using a Four Parameter Logistic Fit (GraphPadPrism9). The smaller the EC50 value, the stronger the ability of the antibodies binds to human or cynomolgus monkey PVRIG. The binding effect of the humanized antibodies was normalized to the corresponding parental antibodies. If the percentage value is higher than 100%, the binding effect of humanized antibodies is better than that of parental antibody.

[4] = biological target: T1, human PVRIG-his (AcroBiosystems, Cat …); test: ELISA, antigen coated
Experimental: as §1

[5] = biological target: T5, Fusion protein of extracellular domain of human TIGIT and human IgG1 Fc fragment (human TIGIT ECD-hFc) (human); test: blocking of TIGIT ECD-hFc binding to CHO-K1 CD155 cells
T5 construct: The entry includes the signal peptide (limits not recoverable) and the human IgG1 Fc
T5 sequence (chain, as listed by the source limits assumed): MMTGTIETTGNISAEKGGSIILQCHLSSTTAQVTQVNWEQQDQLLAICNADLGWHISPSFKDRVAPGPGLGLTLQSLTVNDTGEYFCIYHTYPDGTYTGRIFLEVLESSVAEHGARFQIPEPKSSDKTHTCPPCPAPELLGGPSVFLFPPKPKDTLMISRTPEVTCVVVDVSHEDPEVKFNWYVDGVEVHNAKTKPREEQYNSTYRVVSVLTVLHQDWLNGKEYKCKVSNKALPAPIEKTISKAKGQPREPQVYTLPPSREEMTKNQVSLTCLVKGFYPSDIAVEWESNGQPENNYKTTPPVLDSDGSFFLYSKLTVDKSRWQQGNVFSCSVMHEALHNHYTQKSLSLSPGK
How it was run: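 The inhibition curves from which IC50 was calculated were generated by cell-based ELISA. Fixed CHO-K1 CD155 cells, blocked with 5% skim milk-PBS, were incubated at 37° C for 1.5-2 h with antibodies that had been premixed for 0.5 h with human TIGIT ECD-hFc at a working concentration of 30 ng/mL. Detection of bound TIGIT used HRP secondary antibody at 1:5000 for 1 h at 37° C, followed by TMB and reading as OD450 nm.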

[6] = biological target: T3, Fusion protein of extracellular domain …; test: ELISA, human TIGIT ECD-mFc
Experimental: (§2) After discarding the coating solution, the plate was added with 5% skim milk powder (Sangon Biotech, CAT #A600669-0250)-PBS, 250 μL/well, and incubated at 37° C. for 2-4 hours. […] The enzyme-labeled plate was then washed with 0.05% Tween 20-PBS for 3 times on the Microplate Washer, added with tested antibodies diluted to 13 nM with 1% BSA (diluted by 3-fold serial dilution for 12 concentration points), 50 μL/well, and incubated at 37° C. for 1.5-2 hours. The plate was washed with 0.05% Tween 20-PBS for 3 times on the Microplate Washer, then added with HRP enzyme-labeled antibodies (Merck, CAT #AP113P) diluted with 1% BSA (Sangon Biotech, CAT #A500023-0100)-PBS at a dilution ratio of 1:5000, 50 μL/well, and incubated at 37° C. for 1 hour. After washing 3 times with 0.05% Tween 20-PBS on the Microplate Washer, the plate was added with TMB chromogenic solution (KPL, CAT #52-00-03), 50 μL/well, and incubated at room temperature for 7-10 minutes. 1M HCL, 50 μL/well, was then added into the plate to terminate the reaction, and the OD450 nm was read by a microplate reader (Biotek, Powerwave HT). […] (b) The binding activity of anti-TIGIT chimeric antibodies to CHO-K1 human TIGIT (cells with high, medium and low expression levels) and CHO-KI cynomolgus monkey TIGIT detected by FACS.
(§3) The affinity of the above humanized antibodies with human TIGIT ECD-His is detected by BIAcore, and with reference to the methods of Example 4 (a), (b), and (d), the binding activity of the above humanized antibodies to human TIGIT ECD-mFc, CHO-K1 human TIGIT, CHO-K1 cynomolgus monkey TIGIT and cynomolgus monkey TIGIT ECD-mFc, and the effect of the humanized antibodies blocking the binding between human TIGIT ECD-mFc and CHO-K1 CD155 are detected, the results are shown in Table 18.

[7] = biological target: T6, Full-length cynomolgus monkey TIGIT on CHO-K1 cells (CHO-K1 cynomolgus monkey TIGIT) (cynomolgus monkey); test: cell binding, CHO-K1 cynomolgus monkey TIGIT
T6 construct: NCBI XP_015300911.1
T6 sequence (chain, as listed by the source limits assumed): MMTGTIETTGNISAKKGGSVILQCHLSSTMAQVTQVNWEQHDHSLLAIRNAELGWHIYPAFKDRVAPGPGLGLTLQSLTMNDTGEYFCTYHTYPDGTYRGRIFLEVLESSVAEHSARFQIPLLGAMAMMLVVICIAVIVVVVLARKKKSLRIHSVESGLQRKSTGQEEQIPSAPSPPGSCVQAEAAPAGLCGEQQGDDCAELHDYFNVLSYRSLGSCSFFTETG
Experimental: (§4) The collected cells were washed once with PBS (Hyclone, CAT #SH30256), resuspended to 2×10⁵/50 μL with 1% BSA-PBS. The antibodies were diluted to 80 nM with 1% BSA-PBS (diluted by 3-fold serial dilution for 12 concentration points). The 50 μL cells were then mixed with 50 μL diluted antibodies, and then incubated at 4° C. for 60 minutes. […] After washing twice with PBS, the cell samples were resuspended with 1% BSA-PBS, 100 μL/well and then analyzed by flow cytometry (BD, Canto II). […] [0298] (c) The effect of anti-TIGIT chimeric antibodies blocking the interaction between Bio-CD155-His and CHO-K1 human TIGIT high expression cell strains detected by FACS
as §3

[8] = biological target: T7, Fusion protein of extracellular domain of cynomolgus monkey TIGIT and mouse IgG2a Fc fragment (cynomolgus … (cynomolgus monkey)); test: ELISA, cynomolgus monkey TIGIT ECD-mFc
T7 construct: The entry includes the signal peptide (limits not recoverable) and the mouse IgG2a Fc
T7 sequence (chain, as listed by the source limits assumed): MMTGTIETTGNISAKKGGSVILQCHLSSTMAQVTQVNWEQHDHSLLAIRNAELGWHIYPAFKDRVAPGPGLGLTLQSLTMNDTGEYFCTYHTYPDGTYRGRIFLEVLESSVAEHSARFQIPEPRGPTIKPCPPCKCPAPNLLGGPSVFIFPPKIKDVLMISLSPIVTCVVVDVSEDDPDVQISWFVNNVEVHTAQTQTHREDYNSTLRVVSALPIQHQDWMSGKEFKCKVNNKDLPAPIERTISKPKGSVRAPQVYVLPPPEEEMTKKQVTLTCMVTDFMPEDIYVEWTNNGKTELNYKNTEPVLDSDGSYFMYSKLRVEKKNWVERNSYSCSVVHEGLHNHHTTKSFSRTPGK
Experimental: as §2, §3

[9] = biological target: T4, Full-length human TIGIT on CHO-K1 cells …; test: cell binding, CHO-K1 human TIGIT high expression strain
Experimental: as §4, §3

Kd [1]	koff [1]	kon [1]	% relative activity (IC50) parental antibody/test antibody [2]	IC50 [2]	EC50 [3]	EC50 [4]	IC50 [5]	EC50 [6]	EC50 [7]	EC50 [8]	EC50 [9]	Binder
0.818 nM	0.00091 s⁻¹	1.11e+06 M⁻¹ s⁻¹	114%	0.647 nM	0.0377 nM	0.0678 nM						PVRIG-A105-H5 (Fc fusion, humanized variant of PVRIG-A105; also called A105.VH5; not shown: constant part not restated for the humanized forms; parents are VHH-hinge-CH2-CH3 of human IgG1; detected by anti-human) EVQLVESGGGLVQPGGSLRLSCAASGRTFDRHTMTWFRQAPGKEREFVATASRIPGDTYYVDSVKGRFTISRDNAKNSLYLQMNSLRAEDTAVYYCAATSAYCSEVDCYEKGSWYDNWGQGIQVTVSS
0.693 nM	0.00092 s⁻¹	1.33e+06 M⁻¹ s⁻¹	128%	0.577 nM	0.0343 nM	0.0515 nM						PVRIG-A105-H2 (Fc fusion, humanized variant of PVRIG-A105; also called A105 VH2; not shown: constant part not restated for the humanized forms; parents are VHH-hinge-CH2-CH3 of human IgG1; detected by anti-human) EVQLVESGGGLVQPGGSLRLSCAASGRTFDRHTMTWFRQAPGKEREFVATASRIPGDTYYVDSVKGRFTISRDNAKNSLYLQMNSLRAEDTAVYYCAATSAYCSEVDCYEKGSWYDNWGQGTMVTVSS
							0.44 nM	0.0179 nM	0.0474 nM	0.0254 nM	0.0294 nM	TIGIT-002-H4L2 (antibody, V domains shown, Humanized anti-TIGIT antibody) VH: EVQLQESGPGLVKPSETLSLTCAVSGYSITSDSWNWIRQPPGKKLEYIGYISYSGNTYYNPSLKSRVTISRDTSKNQFSLKLSSVTAADTAVYYCARLDFSNYGGAVDYWGQGTTVTVSS VL: DIVMTQTPLSLSVTPGQPASISCKASQNVRTAVAWYQQKPGQSPQLMIYSASYRYTGVPDRFSGSGSGTDFTLKISRVEAEDVGVYYCQQYYTTPWTFGGGTKVEIK
